Results as given in patent publication US20210388110A1 (published 2021).
Where a chain is given by its changes, count along the chain named. Blank lines part the entries; values can stand above or below the binder they belong to.

Target: T1, soluble human CD3ε chain (human, UniProt P07766 23-126, limits assumed)
T1 construct: also called human CD3 epsilon chain
Experiment: SPR (Biacore), soluble human CD3ε chain

T1 sequence (P07766 23-126 limits assumed): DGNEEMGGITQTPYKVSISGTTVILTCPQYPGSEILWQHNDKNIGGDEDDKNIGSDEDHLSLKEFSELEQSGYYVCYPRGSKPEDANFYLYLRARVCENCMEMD

- Kd: 0.115 µM
B2: TR01H058-E22Hh/none-Hi-Kn010G3/L0000-k0 (antibody, human IgG1, kappa, L234A L235A, N297A)
heavy: QVQLVESGGGLVQPGRSLRLSCAASGFTFSNAWMHWVRQAPGKGLEWVAQIKDKSQNYATYYAESVKGRFTISRDDSKNSLYLQMNSLKTEDTAVYYCRYVHYSASYGVDYWGQGTTVTVSSASTKGPSVFPLAPSSKSTSGGTAALGCLVKDYFPEPVTVSWNSGALTSGVHTFPAVLQSSGLYSLSSVVTVPSSSLGTQTYICNVNHKPSNTKVDKKVEPKSCDKTHTCPPCPAPEAAGGPSVFLFPPKPKDTLMISRTPEVTCVVVDVSHEDPEVKFNWYVDGVEVHNAKTKPREEQYASTYRVVSVLTVLHQDWLNGKEYKCKVSNKALPAPIEKTISKAKGQPREPQVYTLPPSRCELTKNQVSLSCAVKGFYPSDIAVEWESNGQPENNYKTTPPVLDSDGSFFLVSKLTVDKSRWQQGNVFSCSVMHEALHNHYTQKSLSLSPDYKDDDDK
chain: EPKSSDKTHTCPPCPAPELLGGPSVFLFPPKPKDTLMISRTPEVTCVVVDVSHEDPEVKFNWYVDGVEVHNAKTKPREEQYNSTYRVVSVLTVLHQDWLNGKEYKCKVSNKALPAPIEKTISKAKGQPREPQVCTLPPSRDELTKNQVSLWCLVKGFYPSDIAVEWESNGQPENNYKTTPPVLDSDGSFFLYSKLTVDKSRWQQGNVFSCSVMHEALHNRYTQKSLSLSP
light: DIVMTQSPLSLPVTPGEPASISCRSSQSLVHSNRNTYLHWYQQKPGQAPRLLIYKVSNRFSGVPDRFSGSGSGTDFTLKISRVEAEDVGVYYCGQGTQVPYTFGQGTKLEIKRTVAAPSVFIFPPSDEQLKSGTASVVCLLNNFYPREAKVQWKVDNALQSGNSQESVTEQDSKDSTYSLSSTLTLSKADYEKHKVYACEVTHQGLSSPVTKSFNRGEC
notes: one-arm antibody (single Fab) with Fab-less hinge-Fc chain Hi-Kn010G3

- Kd: 0.0763 µM
B6: TR01H067-E22Hh/none-Hi-Kn010G3/L0222-k0 (antibody, human IgG1, kappa, L234A L235A, N297A)
heavy: B2 heavy with S104A, Y111A
chain: B2 chain
light: B2 light with L29P, L38I, H39Q, G94Y
notes: as for B2

- Kd: 0.0526 µM
B8: TR01H067-E22Hh/none-Hi-Kn010G3/TR01L018-k0 (antibody, human IgG1, kappa, L234A L235A, N297A)
heavy: B2 heavy with S104A, Y111A
chain: B2 chain
light: B2 light with R24Q, S25A, Q27E, L29P, Q42L, A48S, R50Q
notes: as for B2

- Kd: 0.0741 µM
B11: TR01H067-E22Hh/none-Hi-Kn010G3/L0215-k0 (antibody, human IgG1, kappa, L234A L235A, N297A)
heavy: B2 heavy with S104A, Y111A
chain: B2 chain
light: B2 light with S28P, L29P, L38I
notes: as for B2

- Kd: 0.132 µM
B12: TR01H067-E22Hh/none-Hi-Kn010G3/L0226-k0 (antibody, human IgG1, kappa, L234A L235A, N297A)
heavy: B2 heavy with S104A, Y111A
chain: B2 chain
light: B2 light with L29P, L38I, G94I
notes: as for B2

- Kd: 0.111 µM
B13: TR01H040-E22Hh/none-Hi-Kn010G3/L0249-k0 (antibody, human IgG1, kappa, L234A L235A, N297A)
heavy: B2 heavy with D75A, L81I, Y111A
chain: B2 chain
light: B2 light with S25P, L29P, L38I, H39Q, G94S
notes: as for B2

- Kd: 0.101 µM
B15: TR01H068-E22Hh/none-Hi-Kn010G3/L0000-k0 (antibody, human IgG1, kappa, L234A L235A, N297A)
heavy: B2 heavy with L11V, R16G, S104A, Y111A
chain: B2 chain
light: B2 light
notes: as for B2

The remaining lines, values behind:

B1: TR01H004-E22Hh//-Hi-Kn010G3/L0000-k0 (antibody, human IgG1, kappa, L234A L235A, N297A)
heavy: B2 heavy with L11V, D53A, Q56N, Y100R, S104Y, A105Y, S106Y, Y111A
chain: B2 chain
light: B2 light
notes: one-arm antibody (single Fab) with Fab-less hinge-Fc chain Hi-Kn010G3; label '//-Hi-Kn010G3' read as none-Hi-Kn010G3
- Kd: 0.135 µM

B3: TR01H040-E22Hh/none-Hi-Kn010G3/L0246-k0 (antibody, human IgG1, kappa, L234A L235A, N297A)
heavy: B2 heavy with D75A, L81I, Y111A
chain: B2 chain
light: B2 light with L29P, L38I, H39Q, G94S
notes: as for B2
- Kd: 0.0928 µM

B4: TR01H035-E22Hh/none-Hi-Kn010G3/L0000-k0 (antibody, human IgG1, kappa, L234A L235A, N297A)
heavy: B2 heavy with D53G, D75A, L81I
chain: B2 chain
light: B2 light
notes: as for B2
- Kd: 0.0849 µM

B5: TR01H008-E22Hh/none-Hi-Kn010G3/L0000-k0 (antibody, human IgG1, kappa, L234A L235A, N297A)
heavy: B2 heavy with D53G, Q56N, D75A, L81I, S104G, S106Y, Y111I
chain: B2 chain
light: B2 light
notes: as for B2
- Kd: 0.0422 µM

B7: TR01H011-E22Hh/none-Hi-Kn010G3/L0000-k0 (antibody, human IgG1, kappa, L234A L235A, N297A)
heavy: B2 heavy with D53A, Q56N, D75A, L81I, S104G, Y111I
chain: B2 chain
light: B2 light
notes: as for B2
- Kd: 0.0371 µM

B9: TR01H009-E22Hh/none-Hi-Kn010G3/L0000-k0 (antibody, human IgG1, kappa, L234A L235A, N297A)
heavy: B2 heavy with D53A, Q56N, E64P, D75A, L81I, S104G, S106Y, Y111I
chain: B2 chain
light: B2 light
notes: as for B2
- Kd: 0.0315 µM

B10: TR01H031-E22Hh/none-Hi-Kn010G3/L0000-k0 (antibody, human IgG1, kappa, L234A L235A, N297A)
heavy: B2 heavy with L11V, R16G, D53G, Q56N, D75A, L81I, Y111I
chain: B2 chain
light: B2 light
notes: as for B2
- Kd: 0.0755 µM

B14: TR01H015-E22Hh/none-Hi-Kn010G3/TR01L002-k0 (antibody, human IgG1, kappa, L234A L235A, N297A)
heavy: B2 heavy with D53G, Q56N, D75A, L81I, Y111I
chain: B2 chain
light: B2 light with Q42L, A48S, R50Q
notes: as for B2
- Kd: 0.0714 µM

B16: TR01H040-E22Hh/none-Hi-Kn010G3/L0248-k0 (antibody, human IgG1, kappa, L234A L235A, N297A)
heavy: B2 heavy with D75A, L81I, Y111A
chain: B2 chain
light: B2 light with S25P, L29P, L38I, H39Q, G94Y
notes: as for B2
- Kd: 0.0789 µM

B17: TR01H010-E22Hh/none-Hi-Kn010G3/L0000-k0 (antibody, human IgG1, kappa, L234A L235A, N297A)
heavy: B2 heavy with D53A, Q56N, D75A, L81I, S106Y, Y111I
chain: B2 chain
light: B2 light
notes: as for B2
- Kd: 0.0373 µM

B18: TR01H040-E22Hh/none-Hi-Kn010G3/L0226-k0 (antibody, human IgG1, kappa, L234A L235A, N297A)
heavy: B2 heavy with D75A, L81I, Y111A
chain: B2 chain
light: B2 light with L29P, L38I, G94I
notes: as for B2
- Kd: 0.0801 µM
